Like-named read-outs stand apart in the source and are kept apart here. Each block holds one binder with its values, some of them ahead of it.
Key:
[1] = biological target: T1, mouse FcγRI (mouse, UniProt P26151 25-297); assay: SPR (Biacore T100/T200): FcγR injected over the antibody held by human FcRn immobilised on a CM4 chip (simultaneous binding), pH 7.4, 25 C
T1 construct: bought; also called mFcgRI; mFcgR 1
T1 sequence (looked up): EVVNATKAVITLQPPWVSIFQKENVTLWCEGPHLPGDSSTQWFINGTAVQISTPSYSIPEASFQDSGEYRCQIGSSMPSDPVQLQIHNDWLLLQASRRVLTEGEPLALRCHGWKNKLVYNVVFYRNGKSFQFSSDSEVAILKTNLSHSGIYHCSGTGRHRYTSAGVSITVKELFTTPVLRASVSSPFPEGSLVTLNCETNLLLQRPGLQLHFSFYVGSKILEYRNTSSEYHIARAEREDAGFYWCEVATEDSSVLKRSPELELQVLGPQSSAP

[2] = biological target: T2, mouse FcγRIIb (mouse, UniProt P08101 30-207, limits assumed); assay: as above
T2 construct: bought; also called mFcgRIIb; mFcgR IIb
T2 sequence (looked up): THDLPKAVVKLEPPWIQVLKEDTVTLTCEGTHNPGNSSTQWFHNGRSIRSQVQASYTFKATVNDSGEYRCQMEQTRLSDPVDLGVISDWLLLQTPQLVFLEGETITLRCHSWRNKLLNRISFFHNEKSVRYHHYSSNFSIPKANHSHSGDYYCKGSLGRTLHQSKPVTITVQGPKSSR

[3] = biological target: T3, human FcγRIa (human, UniProt P12314 16-292, limits assumed); assay: as above
T3 construct: also called hFcgRIa; hFcgRI

[4] = biological target: T4, mouse FcγRIV (mouse, UniProt A0A0B4J1G0 21-203); assay: as above
T4 construct: bought; also called mFcgRIV; mFcgR IV; the vendor's purification tag not given
T4 sequence: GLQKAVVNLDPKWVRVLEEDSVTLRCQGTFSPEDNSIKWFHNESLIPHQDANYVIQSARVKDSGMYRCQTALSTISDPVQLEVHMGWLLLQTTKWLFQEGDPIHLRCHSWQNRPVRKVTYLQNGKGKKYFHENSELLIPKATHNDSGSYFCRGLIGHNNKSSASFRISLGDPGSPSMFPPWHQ

[5] = biological target: T5, mouse FcγRIII (mouse, UniProt P08508 31-215); assay: as above
T5 construct: bought; also called mFcgRIII; mFcgR III
T5 sequence (looked up): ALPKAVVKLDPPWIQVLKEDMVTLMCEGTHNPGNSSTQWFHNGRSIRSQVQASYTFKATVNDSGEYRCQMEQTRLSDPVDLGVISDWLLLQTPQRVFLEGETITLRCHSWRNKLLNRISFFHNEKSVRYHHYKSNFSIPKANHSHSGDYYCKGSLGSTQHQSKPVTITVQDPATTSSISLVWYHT

[6] = biological target: T6, human FcγRIIb (human, UniProt P31994 43-217, limits assumed); assay: as above
T6 construct: also called hFcgRIIb; FcγIIB
T6 sequence: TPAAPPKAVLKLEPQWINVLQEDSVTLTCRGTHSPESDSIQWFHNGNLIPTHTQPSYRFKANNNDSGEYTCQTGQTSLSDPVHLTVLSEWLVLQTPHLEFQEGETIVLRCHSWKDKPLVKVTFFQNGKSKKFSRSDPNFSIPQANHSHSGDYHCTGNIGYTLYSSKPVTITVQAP

[7] = biological target: T7, human FcγRIIa(R) (human, UniProt P12318 36-217); assay: SPR, antibody captured by Protein L, human FcγR as analyte, pH 7.4, 25 C
T7 construct: also called hFcgRIIa(R); FcγRIIa type R
T7 chain: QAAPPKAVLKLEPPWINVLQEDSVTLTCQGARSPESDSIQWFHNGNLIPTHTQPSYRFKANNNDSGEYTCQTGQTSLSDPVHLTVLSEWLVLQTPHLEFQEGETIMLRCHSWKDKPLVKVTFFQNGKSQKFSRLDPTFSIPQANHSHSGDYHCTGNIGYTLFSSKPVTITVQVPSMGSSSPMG

[8] = biological target: T8, human FcγRIIa(H) (human, UniProt P12318 36-217); assay: as above
T8 construct: also called hFcgRIIa(H); FcγRIIa type H
T8 sequence: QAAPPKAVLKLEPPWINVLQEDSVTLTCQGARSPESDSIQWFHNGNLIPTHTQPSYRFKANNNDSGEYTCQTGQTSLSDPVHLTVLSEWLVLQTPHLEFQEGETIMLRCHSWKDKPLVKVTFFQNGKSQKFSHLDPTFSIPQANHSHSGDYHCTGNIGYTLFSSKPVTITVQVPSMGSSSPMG

[9] = biological target: T3, human FcγRIa; assay: as above
[10] = biological target: T6, human FcγRIIb; assay: as above
[11] = biological target: T9, human FcRn (soluble human FcRn complexed with β2-microglobulin) (human, UniProt P61769 21-119, limits assumed); assay: SPR, antibody captured by Protein L, human FcRn as analyte, pH 7.0, 25 C
T9 construct: also called hFcRn

[12] = biological target: T9, human FcRn (soluble human FcRn …); assay: as above; remark: listed apart in the source
[13] = biological target: T5, mouse FcγRIII; assay: SPR, antibody captured by Protein L, mouse FcγR as analyte, pH 7.4, 25 C
[14] = biological target: T4, mouse FcγRIV; assay: as above
[15] = biological target: T2, mouse FcγRIIb; assay: as above
[16] = biological target: T1, mouse FcγRI; assay: as above
[17] = biological target: T5, mouse FcγRIII; assay: SPR (Biacore T100/T200): FcγR injected over the antibody held by mouse FcRn immobilised on a CM4 chip (simultaneous binding), pH 7.4, 25 C
[18] = biological target: T2, mouse FcγRIIb; assay: as above
[19] = biological target: T4, mouse FcγRIV; assay: SPR (Biacore T100/T200): FcγR injected over the antibody held by mouse FcRn immobilised on a CM4 chip, pH 7.4, 25 C
[20] = biological target: T1, mouse FcγRI; assay: as above

T3 sequence (P12314 16-292 limits assumed): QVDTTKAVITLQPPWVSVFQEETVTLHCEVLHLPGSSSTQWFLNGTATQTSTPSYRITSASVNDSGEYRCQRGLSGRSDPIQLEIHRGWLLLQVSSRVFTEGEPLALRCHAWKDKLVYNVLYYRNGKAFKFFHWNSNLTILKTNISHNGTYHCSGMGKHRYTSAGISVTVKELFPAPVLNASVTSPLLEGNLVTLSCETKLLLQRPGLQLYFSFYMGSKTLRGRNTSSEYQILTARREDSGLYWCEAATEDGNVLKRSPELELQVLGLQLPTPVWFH

binding result [1]: binds | binding result [2]: binds | binding result [3]: binds | binding result [4]: binds | binding result [5]: binds | binding result [6]: binds
B1: Fv4-IgG1-F157 (VH3-IgG1-F157 and VL3-CK) (antibody)
heavy: QVQLQESGPGLVKPSETLSLTCAVSGHSISHDHAWSWVRQPPGEGLEWIGFISYSGITNYNPSLQGRVTISRDNSKNTLYLQMNSLRAEDTAVYYCARSLARTTAMDYWGEGTLVTVSSASTKGPSVFPLAPSSKSTSGGTAALGCLVKDYFPEPVTVSWNSGALTSGVHTFPAVLQSSGLYSLSSVVTVPSSSLGTQTYICNVNHKPSNTKVDKKVEPKSCDKTHTCPPCPAPELLGGPSVFLFPPKPKDTLMISRTAEVTCVVVDVSHEDPEVKFNWYVDGVEVHNAKTKPREEQYNSTYRVVSVLTPLHQDWLNGKEYKCKVSNKALPAPIEKTISKAKGQPREPQVYTLPPSRDELTKNQVSLTCLVKGFYPSDIAVEWESNGQPENNYKTTPPVLDSDGSFFLYSKLTVDKSRWQQGNVFSCSVLHEALHYHYTQKSLSLSP
light: DIQMTQSPSSLSASVGDSVTITCQASTDISSHLNWYQQKPGKAPELLIYYGSHLLSGVPSRFSGSGSGTDFTFTISSLEAEDAATYYCGQGNRLPYTFGQGTKVEIERTVAAPSVFIFPPSDEQLKSGTASVVCLLNNFYPREAKVQWKVDNALQSGNSQESVTEQDSKDSTYSLSSTLTLSKADYEKHKVYACEVTHQGLSSPVTKSFNRGEC
notes: copies: 2 + 2

BINDING AMOUNT (RU) [7]: 145 RU | BINDING AMOUNT (RU) [8]: 154 RU | BINDING AMOUNT (RU) [9]: 403 RU | BINDING AMOUNT (RU) [10]: 63.4 RU | Kd [11]: 30 nM | Kd [12]: 30 nM | BINDING AMOUNT (RU) [13]: 371 RU | BINDING AMOUNT (RU) [14]: 242 RU | BINDING AMOUNT (RU) [15]: 112 RU | BINDING AMOUNT (RU) [16]: 315 RU
B2: VH3/L(WT)-IgG1-F21 (VH3-IgG1-F21 heavy chain, L(WT)-CK light chain) (antibody)
heavy: QVQLQESGPGLVKPSETLSLTCAVSGHSISHDHAWSWVRQPPGEGLEWIGFISYSGITNYNPSLQGRVTISRDNSKNTLYLQMNSLRAEDTAVYYCARSLARTTAMDYWGEGTLVTVSSASTKGPSVFPLAPSSKSTSGGTAALGCLVKDYFPEPVTVSWNSGALTSGVHTFPAVLQSSGLYSLSSVVTVPSSSLGTQTYICNVNHKPSNTKVDKKVEPKSCDKTHTCPPCPAPELLGGPSVFLFPPKPKDTLYISRTPEVTCVVVDVSHEDPEVKFNWYVDGVEVHNAKTKPREEQYNSTYRVVSVLTPLHQDWLNGKEYKCKVSNKALPAPIEKTISKAKGQPREPQVYTLPPSRDELTKNQVSLTCLVKGFYPSDIAVEWESNGQPENNYKTTPPVLDSDGSFFLYSKLTVDKSRWQQGNVFSCSVMHEALHYHYTQKSLSLSP
light: not shown
notes: M252Y/V308P/N434Y; copies: 2 + 2

binding result [17]: binds | binding result [18]: binds | binding result [19]: no binding | binding result [20]: no binding
B3: mPM1-mIgG1-mF3 (mPM1H-mIgG1-mF3 and mPM1L-mk1) (antibody)
heavy: DVQLQESGPVLVKPSQSLSLTCTVTGYSITSDHAWSWIRQFPGNKLEWMGYISYSGITTYNPSLKSRISITRDTSKNQFFLQLNSVTTGDTSTYYCARSLARTTAMDYWGQGTSVTVSSAKTTPPSVYPLAPGSAAQTNSMVTLGCLVKGYFPEPVTVTWNSGSLSSGVHTFPAVLQSDLYTLSSSVTVPSSTWPSETVTCNVAHPASSTKVDKKIVPRDCGCKPCICTVPEVSSVFIFPPKPKDVLYITLEPKVTCVVVDISKDDPEVQFSWFVDDVEVHTAQTQPREEQFNSTFRSVSELPIMHQDWLNGKEFKCRVNSAAFPAPIEKTISKTKGRPKAPQVYTIPPPKEQMAKDKVSLTCMITDFFPEDITVEWQWNGQPAENYKNTQPIMDTDGSYFVYSKLNVQKSNWEAGNTFTCSVLHEGLKFHHTEKSLSHSPGK
light: DIQMTQTTSSLSASLGDRVTISCRASQDISSYLNWYQQKPDGTIKLLIYYTSRLHSGVPSRFSGSGSGTDYSLTINNLEQEDIATYFCQQGNTLPYTFGGGTKLEIKRADAAPTVSIFPPSSEQLTSGGASVVCFLNNFYPKDINVKWKIDGSERQNGVLNSWTDQDSKDSTYSMSSTLTLTKDEYERHNSYTCEATHKTSTSPIVKSFNRNEC
notes: copies: 2 + 2

Reference: patent publication US20200199241A1 (Chugai, published 2020)
